The source of these data is patent US8178324B2, “Deracemisation of amines” (Ingenza Limited, priority 2002, dated 2012).

This series concerns CCCCCN. The series is described as follows: Colorimetric hydrogen peroxide amine oxidase assay, purified mutant enzyme (N336S). It counts as biochemical, Aspergillus niger. The settings on record: other: purified N336S mutant; 30.0 °C. The method, then: The wild-type enzyme was also purified by the same protocol and the two enzymes compared for substrate specificity and enantioselectivity.
The mutated gene was also sequenced and the sequence is shown in SEQ ID NO: 2. There was a single amino acid change from the wild-type enzyme with serine replacing asparagine at position 336.
LB medium (6×300 ml) containing ampicillin (100 μg·ml^−1) in 1 L baffled flasks was inoculated with a single colony of monoamine oxidase mutant from an LB agar plate. Cultures were incubated at 30° C. for 22 hours (OD600˜3.6) then harvested and washed with phosphate buffer (50 mM, pH 8) to yield a yellow-brown pellet (11.2 g).
The pellet was resuspended in Tris/HCl buffer (25 mM, pH 7.8, 30 ml) and sonicated on ice (30 s on, 30 s off for 10 minutes). The suspension was then centrifuged (20,000 rpm, 4° C.) until clear supernatant was obtained and the supernatant dialysed against Tris/HCl buffer (25 mM, pH 7.8). […]
The spectrophotometer was blanked against assay mixture and HRP. Enzyme was added and the absorbance at 500 nm measured at 3 s intervals for a 10 minute period.
The Km values were calculated using ‘KaleidaGraph for Windows’ (Synergy Software). For calculation of the kcat, the active enzyme concentration was determined by estimating the FAD content from the absorbance at 458 nm using an extinction coefficient of 11 mM^−1 cm^−1 (see ref 12).

Take “mutant A. niger monoamine oxidase (N336S) (Aspergillus niger; A300V/K348M/L304V/N336S/R450G)”: the Michaelis constant (Km) amounted to 400 µM and the kcat was found to be 1.93 s⁻¹.
